{"source": "paper PMC4364404", "target": "T1, NgTet1 (Naegleria gruberi, UniProt D2W6T1 1-321)", "T1 sequence": "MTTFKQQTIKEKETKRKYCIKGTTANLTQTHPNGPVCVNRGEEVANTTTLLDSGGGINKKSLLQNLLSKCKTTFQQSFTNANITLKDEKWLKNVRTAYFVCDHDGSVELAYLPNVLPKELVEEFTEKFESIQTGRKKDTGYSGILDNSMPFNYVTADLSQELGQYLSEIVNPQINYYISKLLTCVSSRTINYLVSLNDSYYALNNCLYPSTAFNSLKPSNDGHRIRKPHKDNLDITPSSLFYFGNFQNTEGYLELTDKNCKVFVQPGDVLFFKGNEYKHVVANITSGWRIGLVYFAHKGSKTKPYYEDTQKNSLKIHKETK", "experiment": "X-ray crystallography"}
{"binder": "14-bp fully methylated CpG DNA (dsDNA, 5mC at position 6 of strand 1 and position 8 of strand 2) DNA 1: TGGAACGCAATTCT DNA 2: AGAATTGCGTTCCA", "values": [{"measurement": "binding result", "value": "binds"}]}
